Measured values from publication PMC10785194.

Key:
Conditions in all cases: control: untreated
[1] = immunoblot, C4-2B
[2] = immunofluorescence, nuclear AR, C4-2B
[3] = CHX chase, AR protein stability by immunoblot

Row | Protein | other: AR S81 phosphorylation ([1]; glycan lost) | localisation_or_trafficking ([2]; glycan lost) | degradation_or_half_life ([3]; glycan lost) | other: AR S81 phosphorylation ([1]; glycan gained) | localisation_or_trafficking ([2]; glycan gained) | degradation_or_half_life ([3]; glycan gained)
1 | androgen receptor (AR): OSMI-1 (protein) parent chain: MEVQLGLGRVYPRPPSKTYRGAFQNLFQSVREVIQNPGPRHPEAASAAPPGASLLLLQQQQQQQQQQQQQQQQQQQQQQQETSPRQQQQQQGEDGSPQAHRRGPTGYLVLDEEQQPSQPQSALECHPERGCVPEPGAAVAASKGLPQQLPAPPDEDDSAAPSTLSLLGPTFPGLSSCSADLKDILSEASTMQLLQQQQQEAVSEGSSSGRAREASGAPTSSKDNYLGGTSTISDNAKELCKAVSVSMGLGVEALEHLSPGEQLRGDCMYAPLLGVPPAVRPTPCAPLAECKGSLLDDSAGKSTEDTAEYSPFKGGYTKGLEGESLGCSGSAAAGSSGTLELPSTLSLYKSGALDEAAAYQSRDYYNFPLALAGPPPPPPPPHPHARIKLENPLDYGSAWAAAAAQCRYGDLASLHGAGAAGPGSGSPSAAASSSWHTLFTAEEGQLYGPCGGGGGGGGGGGGGGGGGGGGGGGEAGAVAPYGYTRPPQGLAGQESDFTAPDVWYPGGMVSRVPYPSPTCVKSEMGPWMDSYSGPYGDMRLETARDHVLPIDYYFPPQKTCLICGDEASGCHYGALTCGSCKVFFKRAAEGKQKYLCASRNDCTIDKFRRKNCPSCRLRKCYEAGMTLGARKLKKLGNLKLQEEGEASSTTSPTEETTQKLTVSHIEGYECQPIFLNVLEAIEPGVVCAGHDNNQPDSFAALLSSLNELGERQLVHVVKWAKALPGFRNLHVDDQMAVIQYSWMGLMVFAMGWRSFTNVNSRMLYFAPDLVFNEYRMHKSRMYSQCVRMRHLSQEFGWLQITPQEFLCMKALLLFSIIPVDGLKNQKFFDELRMNYIKELDRIIACKRKNPTSCSRRFYQLTKLLDSVQPIARELHQFTFDLLIKSHMVSVDFPEMMAEIISVQVPKILSGKVKPIYFHTQ | increases | increases | increases | – | – | –
2 | androgen receptor (AR): Thiamet G (protein) parent chain: MEVQLGLGRVYPRPPSKTYRGAFQNLFQSVREVIQNPGPRHPEAASAAPPGASLLLLQQQQQQQQQQQQQQQQQQQQQQQETSPRQQQQQQGEDGSPQAHRRGPTGYLVLDEEQQPSQPQSALECHPERGCVPEPGAAVAASKGLPQQLPAPPDEDDSAAPSTLSLLGPTFPGLSSCSADLKDILSEASTMQLLQQQQQEAVSEGSSSGRAREASGAPTSSKDNYLGGTSTISDNAKELCKAVSVSMGLGVEALEHLSPGEQLRGDCMYAPLLGVPPAVRPTPCAPLAECKGSLLDDSAGKSTEDTAEYSPFKGGYTKGLEGESLGCSGSAAAGSSGTLELPSTLSLYKSGALDEAAAYQSRDYYNFPLALAGPPPPPPPPHPHARIKLENPLDYGSAWAAAAAQCRYGDLASLHGAGAAGPGSGSPSAAASSSWHTLFTAEEGQLYGPCGGGGGGGGGGGGGGGGGGGGGGGEAGAVAPYGYTRPPQGLAGQESDFTAPDVWYPGGMVSRVPYPSPTCVKSEMGPWMDSYSGPYGDMRLETARDHVLPIDYYFPPQKTCLICGDEASGCHYGALTCGSCKVFFKRAAEGKQKYLCASRNDCTIDKFRRKNCPSCRLRKCYEAGMTLGARKLKKLGNLKLQEEGEASSTTSPTEETTQKLTVSHIEGYECQPIFLNVLEAIEPGVVCAGHDNNQPDSFAALLSSLNELGERQLVHVVKWAKALPGFRNLHVDDQMAVIQYSWMGLMVFAMGWRSFTNVNSRMLYFAPDLVFNEYRMHKSRMYSQCVRMRHLSQEFGWLQITPQEFLCMKALLLFSIIPVDGLKNQKFFDELRMNYIKELDRIIACKRKNPTSCSRRFYQLTKLLDSVQPIARELHQFTFDLLIKSHMVSVDFPEMMAEIISVQVPKILSGKVKPIYFHTQ | – | – | – | decreases | decreases | decreases
